Measured values published in patent US20260070984A1 (Boehringer Ingelheim, published 2026).

B1: Chimeric 718C2 (antibody, V domains shown)
VH: EVQLQQSGPELVKPGASVKMSCKASGYTFTSYVMHWVRQKPGQGLEWIGYIDPDNDGTKYNEKFKGKATLTSDKSSSTAYMELSSLTSEDSAVYYCAREAYYGGLYGMDYWGQGSSVTVSS
VL: DIVMSQSPSSLTVSVGEKVTMSCKSSQSLLYSSNQKIYLAWFQQKPGQSPKLLIYWASTRESGVPDRFTGSGSGTDFTLTISSVKAEDLAVYYCQQYYNSPLTFGAGTKLELK
notes: Mouse variable domains in human IgG4Pro (Ser228Pro) backbone; also called 718C2 in human IgG4Pro backbone
B2: Chimeric 703D10 (antibody, V domains shown)
VH: QVQLQQPGAELVKPGASVKLSCKASGYSFTSYWMHWVRQRPGQGLEWIGDIDPSNSYAYHSQKFKGKATLTVDKSSSTAYMQLSSLTSEDSAVYFCARADGTSHWYFDVWGAGTAVTVSS
VL: QIVLTQSPGIMSASPGEKVTITCSANSSVSFMHWFQQKPGTSPKIWIYSTSSLASGVPARFSGSGSGTSYSLTISRMEAEDAATYYCQQRSSYPLTFGAGTKLELK
notes: Mouse variable domains in human IgG4Pro (Ser228Pro) backbone; also called 703D10 in human IgG4Pro backbone
B3: 306E6 (mouse IgG1 backbone) (antibody, V domains shown)
VH: EVQLQQSGPELVKPGSSVKISCKASGYTFTDYYVNWVKQSHGKSLEWFGDIHPNSGDTTYNQKFKDKATLTVDKSSSTAYMELRSLTSEDSAVYYCARRRYDYDGFAYWGQGTLVTVSA
VL: EIVMTQAAFSNPVTLGTSASISCRSSKSLLHRNGITYLYWYLQKPGQSPQLLIYEMSNLASGVPDRFSSSGSGTDFTLRISRVEAEDVGVYYCGQNLEFPLTFGAGTKLELK
B4: 703D10 (mouse IgG1 backbone) (antibody, V domains shown)
VH: B2 VH
VL: B2 VL
B5: 708E4 (mouse IgG1 backbone) (antibody, V domains shown)
VH: QIQLQQSGPELVKPGASVKISCKASGYTFTDYYLNWVKQRPGHGLEWIGWIYPGSSDTKHNENFKGKATLTVDTYSSTAYMQLGSLTSEDSAVYFCTRYSNFFFDYWGQGTTLTVSS
VL: DIVMTQSQKFLSTSVGDRVRVTCKASQNVVTYVAWYQQKPGQSPKSLIYSASYRYSGVPDRFTGSGSGTYFTLTINNVQFEDLAEYFCQQYHSYPYTFGGGTKLEIK
B6: 718C2 (mouse IgG1 backbone) (antibody, V domains shown)
VH: B1 VH
VL: B1 VL

These binders were tested against T1, recombinant human PD-1 (human, UniProt Q15116 25-167, limits assumed) (assay: SPR, ProteOn XPR36).
T1 construct: Soluble recombinant protein used in SPR; also called PDCD1; purified recombinant human PD-1
T1 sequence (Q15116 25-167 limits assumed): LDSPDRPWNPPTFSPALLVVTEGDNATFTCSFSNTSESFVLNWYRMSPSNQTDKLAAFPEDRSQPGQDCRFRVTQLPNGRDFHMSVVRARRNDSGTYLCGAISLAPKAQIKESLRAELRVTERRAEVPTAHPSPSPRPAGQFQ
Experimental: Kinetics and binding affinities were measured using the ProteOn™ XPR36 (Biorad, Hercules, CA) surface plasmon resonance optical biosensor using material generated from transient transfection following single column purification.
B1 showed a Kd of 3.98 nM, a koff of 0.000113 s⁻¹ and a kon of 28400 M⁻¹ s⁻¹. In the case of B2, the Kd is reported as 9.49 nM, the koff is reported as 0.000329 s⁻¹ and the kon is reported as 34600 M⁻¹ s⁻¹.

Each binder was assayed against T2, human PD-1 expressed on cells (human, UniProt Q15116 25-288) (assay: cell-based or functional assay).
T2 sequence (Q15116 25-288): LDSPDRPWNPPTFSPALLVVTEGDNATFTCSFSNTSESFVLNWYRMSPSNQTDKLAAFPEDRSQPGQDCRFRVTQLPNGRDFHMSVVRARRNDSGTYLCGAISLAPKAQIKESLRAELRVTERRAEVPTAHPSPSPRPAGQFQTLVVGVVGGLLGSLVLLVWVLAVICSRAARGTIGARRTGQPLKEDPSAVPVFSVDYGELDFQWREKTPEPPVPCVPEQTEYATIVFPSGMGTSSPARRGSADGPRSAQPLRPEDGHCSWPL
With B3 the “Emax Values (%), inhibition of NFAT activity” value (shortened to “Emax Values (%), inhibition”) was 45.5% and the “IC50 Values (nM), inhibition of NFAT activity” value (“IC50 Values (nM), inhibition” for short) was 1.14 nM. B4 was tested, and the “Emax Values (%), inhibition” value was 47.4% and the “IC50 Values (nM), inhibition” value was 10.9 nM. For B5, the “Emax Values (%), inhibition” value was 48.7% and the “IC50 Values (nM), inhibition” value was 0.17 nM. With B6 the “Emax Values (%), inhibition” value was 50.8% and the “IC50 Values (nM), inhibition” value was 0.82 nM. B1 was tested, and the “Emax Values (%), inhibition” value was 44.4% and the “IC50 Values (nM), inhibition” value was 0.38 nM. In the case of B2, the “Emax Values (%), inhibition” value is reported as 41.9% and the “IC50 Values (nM), inhibition” value is reported as 0.39 nM.

Target: T2, human PD-1 expressed on cells
Assay: cell-based or functional assay
Remark: another data set of the same source
For B3, the “Emax Values (%), Average, inhibition of IFNγ” value was 19.5% and the “IC50 Values (pM), Average, inhibition of IFNγ” value was 22 pM. With B4 the “Emax Values (%), Average, inhibition of IFNγ” value was 65% and the “IC50 Values (pM), Average, inhibition of IFNγ” value was 3200 pM. With B5 the “Emax Values (%), Average, inhibition of IFNγ” value was 73.5% and the “IC50 Values (pM), Average, inhibition of IFNγ” value was 915 pM. For B6, the “Emax Values (%), Average, inhibition of IFNγ” value was 64.5% and the “IC50 Values (pM), Average, inhibition of IFNγ” value was 995 pM.
